{"source": "patent US20240228986A1", "about": "“ENGINEERED CELLS, ENZYMES, AND METHODS FOR PRODUCING CANNABINOIDS” (priority 2021, published 2024)", "key": {"[1]": {"test_system": "olivetolic acid", "assay": "Linkers for GPS1.1-MPT4 fusions, in vivo assay (Example 6)", "type": "cell-based, Yarrowia", "conditions": "1 mM olivetolic acid, 72 h quench", "procedure": "(§1) As described in detail below, plasmids pCL-SE-0380 (MPT4), pCL-SE-0406, pCL-SE-0435, and pCL-SE-0437 were transformed into strain sCL-SE-0128. Four separate colonies per transformation were precultured for 24 h in YNB containing glycerol (2%), casamino acids (0.5%), and MES (100 mM pH 6.5). Pre-culture was used to inoculate assay medium comprised of YNB containing glycerol (2%), casamino acids (0.5%), MES (100 mM pH 6.5), and olivetolic acid (1 mM). Cultures were quenched after 72 h total growth by mixing with equal volume of EtOH. Enzymes produced CBGA and FCBGA. Averages and standard deviations were calculated from replicates.\nHowever, sCL-SE-0128 expresses HMGR and GPS1.1 to increase intracellular GPP levels for prenylation of OA to CBGA. The plasmids that were transformed contain either a gene expressing a prenyl-transferase (pCL-SE-0380 (MPT4)) or a gene expressing a fusion between GPS1.1 and a prenyl-transferase with different linker sequences.\n(§2) Overnight YPD (10 g/L yeast extract, 20 g/L peptone, 2% dextrose) cultures were inoculated from glycerol stocks of the appropriate strain and grown at 30° C. with 250 rpm shaking. Once cultures had reached an OD600 of 4-6, cultures were centrifuged at 500×g for 5 min, supernatants were discarded, and cell pellets were resuspended in equal volume of water. Resuspended cells were centrifuged at 500×g for 5 min, supernatants were discarded, and cells were resuspended in a volume (75 μL×OD×Vculture) of transformation cocktail (45% PEG-400, 0.1 M LiAc, 0.1 M DTT, and 25 ug/100 μL SS Salmon Sperm DNA). For each transformation, >1 μg of plasmid DNA was added to 55 μL cells/transformation cocktail and vortexed for 2 s. Transformations were incubated at 39° C. for 1 h with 250 rpm shaking. Transformations were resuspended in 750 μL YPD with 1 M sorbitol and recovered at 30° C. overnight with 250 rpm shaking. The next day, transformations were centrifuged at 500×g for 5 min, supernatants were discarded, and cell pellets were resuspended in 750 YPD. Resuspended transformations were plated on YPD with appropriate selection or YNBD (6.71 g/L yeast nitrogen base+nitrogen, 0.5% casamino acids, 2% dextrose) agar plates and grown at 30° C. for 2 days. Individual colonies were patched onto YPD plates with appropriate selection or YNBD plates and grown at 30° C. overnight. Patches were used to inoculate 0.5 mL YPD with appropriate selection or YNBD precultures in 96 w blocks and grown at 30° C. for 24-48 h with 1000 rpm shaking. For assays, 0.5 mL YPD with appropriate selection or YNBD cultures containing substrate were inoculated with 2 μL from precultures and grown at 30° C. for 2-4 days with 1000 rpm shaking with 2% glucose added every 24 h. Assay cultures were quenched by addition of 0.5 mL ethanol with 0.2% formic acid and 0.5 mg/mL pentyl-benzoic acid. Precipitates were pelleted by centrifuging at 4600×g for 10 min and then 200 μL was transferred to fresh plates, sealed, and analyzed via HPLC.\n(§3) All samples were quenched with equal volume of EtOH containing 0.2 mg/mL internal standard (3,5-Diisopropyl-2-hydroxybenzoic acid CAS #2215-21-6) centrifuged, and clarified solutions were analyzed by HPLC-MS\n(§4) • Column: 2.1×50 mm COSMOCORE PBr (Nacalai USA, Inc.) • Mobile Phase: A; 0.1% formic acid in water, B; 0.1% formic acid in acetonitrile • Flow: 0.45 mL/min • Temp: % 50 Celsius • Gradient: 20%B at 0 min, 70%B at 2.3 min, 89% B at 4.2 min, 20% B at 4.3 min, 20%B at 6 min"}, "[2]": {"test_system": "olivetolic acid", "assay": "Fusions of different GPSs with MPT4, in vivo assay (Example 7)", "type": "cell-based, Yarrowia", "conditions": "1 mM olivetolic acid, 72 h quench", "procedure": "as §1, with “described” for “described in detail”, “pCL-SE-0337, 0406, 0452” for “pCL-SE-0380 (MPT4), pCL-SE-0406, pCL-SE-0435,”, “0453” for “pCL-SE-0437”, “Multiple” for “Four separate”, “and assayed for” for “by mixing with equal volume of EtOH. Enzymes produced”, “F-CBGA.” for “FCBGA.”\nHowever, sCL-SE-0128 expresses HMGR and GPS1.1 to increase intracellular GPP levels for prenylation of OA to CBGA. The plasmids that were transformed contain a gene expressing a fusion between two different GPSs and a prenyl-transferase. The same linker is used for all constructs. […] Additionally, as illustrated by GPS2 (pCL-SE-0453), certain GPS-MPT combinations result in very high CBGA/ FCBGA ratios.\nas §2, §3, §4"}, "[3]": {"conditions": "2% glycerol, strain sCL-SE-0128"}}, "data": [{"molecule": "GPS1.1-F11-MPT4: fusion of GPS1.1 and MPT4 via F11 linker, SEQ ID NO: 16 (protein, GPS1.1-F11-MPT4, geranyl diphosphate synthase, membrane-bound prenyltransferase fusion protein) MSKAKFESVFPRISEELVQLLRDEGLPQDAVQWFSDSLQYNCVGGKLNRGLSVVDTYQLLTGKKELDDEEYYRLALLGWLIELLQAFWLVSDDIMDESKTRRGQPCWYLKPKVGMIAIWDAFMLESGIYILLKKHFRQEKYYIDLVELFHDISFKTELGQLVDLLTAPEDEVDLNRFSLDKHSFIVRYKTAYYSFYLPVVLAMYVAGITNPKDLQQAMDVLIPLGEYFQVQDDYLDNFGDPEFIGKIGTDIQDNKCSWLVNKALQKATPEQRQILEDNYGVKDKSKELVIKKLYDDMKIEQDYLDYEEEVVGDIKKKIEQVDESRGFKKEVLNAFLAKIYKRQKGGAEAAAKEAAAKAGGSGGGSGGGGSGGSGGGGSGGGGSMSDNSIATKILNFGHTCWKLQRPYVVKGMISIACGLFGRELFNNRHLFSWGLMWKAFFALVPILSFNFFAAIMNQIYDVDIDRINKPDLPLVSGEMSIETAWILSIIVALTGLIVTIKLKSAPLFVFIYIFGIFAGFAYSVPPIRWKQYPFTNFLITISSHVGLAFTSYSATTSALGLPFVWRPAFSFIIAFMTVMGMTIAFAKDISDIEGDAKYGVSTVATKLGARNMTFVVSGVLLLNYLVSISIGIIWPQVFKSNIMILSHAILAFCLIFQTRELALANYASAPSRQFFEFIWLLYYAEYFVYVFI", "values": [{"measurement": "CBGA", "setting": "[1]; [3]", "value": "393 ± 41", "unit": "µM"}, {"measurement": "FCBGA", "setting": "[1]; [3]", "value": "60 ± 5", "unit": "µM"}, {"measurement": "CBGA/FCBGA", "setting": "[1]; product ratio", "value": 6.6}, {"measurement": "CBGA", "setting": "[2]; [3]", "value": "376 ± 41", "unit": "µM"}, {"measurement": "FCBGA", "setting": "[2]; [3]", "value": "51 ± 5", "unit": "µM"}, {"measurement": "CBGA/FCBGA", "setting": "[2]; product ratio", "value": 7.4}]}]}
